We go through 18 variants from the RNAGym collection of RNA variant scans (doi:10.1021/acssynbio.7b00057).

B1: Pistol ribozyme (parent)
chain: GGGUCGUUGUUCCAUAAUCGCGUGGAUAUGGCACGCAAGUUUCUACCGGGCACCGUAAAUGUCCGACUGGAGCCGUUCGGGCGGCUAUAAACAGACCUCAGGCCCGAAGCGUGGCGGCACCUGCCGCCGGUGGUAAAAAAGAUCGGAAGAGCACACGUCU

In this data set the parent is B1. Briefly: aptazyme ON/OFF ratio, guanine; higher = stronger switching; co-transcriptional cleavage with and without guanine.
Turning to GGGUCGCACGUGAAUAAUCGCGUGGAUAUGGCACGCAAGUUUCUACCGGGCACCGUAAAUGUCCGACUGGAGCCGUUCGGGCGGCUAUAAACAGACCUCAGGCCCGAAGCGUGGCGGCACCUGCCGCCGGUGGUAAAAAAGAUCGGAAGAGCACACGUCU, the “aptazyme ON/OFF ratio” value amounted to 1.32.

For the variant GGGUCGCACGUGGAUAAUCGCGUGGAUAUGGCACGCAAGUUUCUACCGGGCACCGUAAAUGUCCGACUGGAGCCGUUCGGGCGGCUAUAAACAGACCUCAGGCCCGAAGCGUGGCGGCACCUGCCGCCGGUGGUAAAAAAGAUCGGAAGAGCACACGUCU, the “aptazyme ON/OFF ratio” value stood at 1.13.

Regarding GGGUCGCACGUGUAUAAUCGCGUGGAUAUGGCACGCAAGUUUCUACCGGGCACCGUAAAUGUCCGACUGGAGCCGUUCGGGCGGCUAUAAACAGACCUCAGGCCCGAAGCGUGGCGGCACCUGCCGCCGGUGGUAAAAAAGAUCGGAAGAGCACACGUCU, the “aptazyme ON/OFF ratio” value was 1.15.

As to GGGUCGCACCGUUAUAAUCGCGUGGAUAUGGCACGCAAGUUUCUACCGGGCACCGUAAAUGUCCGACUGGAGCCGUUCGGGCGGCUAUAAACAGACCUCAGGCCCGAAGCGUGGCGGCACCUGCCGCCGGUGGUAAAAAAGAUCGGAAGAGCACACGUCU, the “aptazyme ON/OFF ratio” value came out at 1.1.

With GGGUCGCACCGUGAUAAUCGCGUGGAUAUGGCACGCAAGUUUCUACCGGGCACCGUAAAUGUCCGACUGGAGCCGUUCGGGCGGCUAUAAACAGACCUCAGGCCCGAAGCGUGGCGGCACCUGCCGCCGGUGGUAAAAAAGAUCGGAAGAGCACACGUCU, the “aptazyme ON/OFF ratio” value turned out to be 1.11.

With GGGUCGCACCGUAAUAAUCGCGUGGAUAUGGCACGCAAGUUUCUACCGGGCACCGUAAAUGUCCGACUGGAGCCGUUCGGGCGGCUAUAAACAGACCUCAGGCCCGAAGCGUGGCGGCACCUGCCGCCGGUGGUAAAAAAGAUCGGAAGAGCACACGUCU, the “aptazyme ON/OFF ratio” value stood at 1.05.

As for GGGUCGCACGUCCAUAAUCGCGUGGAUAUGGCACGCAAGUUUCUACCGGGCACCGUAAAUGUCCGACUGGAGCCGUUCGGGCGGCUAUAAACAGACCUCAGGCCCGAAGCGUGGCGGCACCUGCCGCCGGUGGUAAAAAAGAUCGGAAGAGCACACGUCU, the “aptazyme ON/OFF ratio” value turned out to be 1.97.

Consider GGGUCGCACGUCAAUAAUCGCGUGGAUAUGGCACGCAAGUUUCUACCGGGCACCGUAAAUGUCCGACUGGAGCCGUUCGGGCGGCUAUAAACAGACCUCAGGCCCGAAGCGUGGCGGCACCUGCCGCCGGUGGUAAAAAAGAUCGGAAGAGCACACGUCU, for which the “aptazyme ON/OFF ratio” value came to 1.15.

As to GGGUCGCACGUCUAUAAUCGCGUGGAUAUGGCACGCAAGUUUCUACCGGGCACCGUAAAUGUCCGACUGGAGCCGUUCGGGCGGCUAUAAACAGACCUCAGGCCCGAAGCGUGGCGGCACCUGCCGCCGGUGGUAAAAAAGAUCGGAAGAGCACACGUCU, the “aptazyme ON/OFF ratio” value is 1.35.

Consider GGGUCGCACGUCGAUAAUCGCGUGGAUAUGGCACGCAAGUUUCUACCGGGCACCGUAAAUGUCCGACUGGAGCCGUUCGGGCGGCUAUAAACAGACCUCAGGCCCGAAGCGUGGCGGCACCUGCCGCCGGUGGUAAAAAAGAUCGGAAGAGCACACGUCU, for which the “aptazyme ON/OFF ratio” value worked out at 1.11.

GGGUCGCACCGGUAUAAUCGCGUGGAUAUGGCACGCAAGUUUCUACCGGGCACCGUAAAUGUCCGACUGGAGCCGUUCGGGCGGCUAUAAACAGACCUCAGGCCCGAAGCGUGGCGGCACCUGCCGCCGGUGGUAAAAAAGAUCGGAAGAGCACACGUCU: the “aptazyme ON/OFF ratio” value turned out to be 1.07.

With GGGUCGCACGACCAUAAUCGCGUGGAUAUGGCACGCAAGUUUCUACCGGGCACCGUAAAUGUCCGACUGGAGCCGUUCGGGCGGCUAUAAACAGACCUCAGGCCCGAAGCGUGGCGGCACCUGCCGCCGGUGGUAAAAAAGAUCGGAAGAGCACACGUCU, the “aptazyme ON/OFF ratio” value came out at 1.05.

As for GGGUCGCACGAAAAUAAUCGCGUGGAUAUGGCACGCAAGUUUCUACCGGGCACCGUAAAUGUCCGACUGGAGCCGUUCGGGCGGCUAUAAACAGACCUCAGGCCCGAAGCGUGGCGGCACCUGCCGCCGGUGGUAAAAAAGAUCGGAAGAGCACACGUCU, the “aptazyme ON/OFF ratio” value was 1.17.

GGGUCGCACGAAUAUAAUCGCGUGGAUAUGGCACGCAAGUUUCUACCGGGCACCGUAAAUGUCCGACUGGAGCCGUUCGGGCGGCUAUAAACAGACCUCAGGCCCGAAGCGUGGCGGCACCUGCCGCCGGUGGUAAAAAAGAUCGGAAGAGCACACGUCU: the “aptazyme ON/OFF ratio” value worked out at 1.33.

For GGGUCGCACGAAGAUAAUCGCGUGGAUAUGGCACGCAAGUUUCUACCGGGCACCGUAAAUGUCCGACUGGAGCCGUUCGGGCGGCUAUAAACAGACCUCAGGCCCGAAGCGUGGCGGCACCUGCCGCCGGUGGUAAAAAAGAUCGGAAGAGCACACGUCU, the “aptazyme ON/OFF ratio” value was 1.13.

GGGUCGCACGUGCAUAAUCGCGUGGAUAUGGCACGCAAGUUUCUACCGGGCACCGUAAAUGUCCGACUGGAGCCGUUCGGGCGGCUAUAAACAGACCUCAGGCCCGAAGCGUGGCGGCACCUGCCGCCGGUGGUAAAAAAGAUCGGAAGAGCACACGUCU: the “aptazyme ON/OFF ratio” value worked out at 1.28.

As to GGGUCGCACGUACAUAAUCGCGUGGAUAUGGCACGCAAGUUUCUACCGGGCACCGUAAAUGUCCGACUGGAGCCGUUCGGGCGGCUAUAAACAGACCUCAGGCCCGAAGCGUGGCGGCACCUGCCGCCGGUGGUAAAAAAGAUCGGAAGAGCACACGUCU, the “aptazyme ON/OFF ratio” value came out at 1.17.

Take GGGUCGCACGUUCAUAAUCGCGUGGAUAUGGCACGCAAGUUUCUACCGGGCACCGUAAAUGUCCGACUGGAGCCGUUCGGGCGGCUAUAAACAGACCUCAGGCCCGAAGCGUGGCGGCACCUGCCGCCGGUGGUAAAAAAGAUCGGAAGAGCACACGUCU: the “aptazyme ON/OFF ratio” value came out at 1.36.
